Measured values as given in patent US12458688B2, “Epitopes” (Scancell Limited, priority 2018, dated 2025).
Where no end group is shown, it is not given here. [ ]: non-standard residue; d: D form. hCit = NC(=O)NCCCC[C@H](N)C(=O)O

Molecular target: T1, HLA-DP4 (Homo sapiens, UniProt P04440+P20036)
T1 sequence (P20036 29-260): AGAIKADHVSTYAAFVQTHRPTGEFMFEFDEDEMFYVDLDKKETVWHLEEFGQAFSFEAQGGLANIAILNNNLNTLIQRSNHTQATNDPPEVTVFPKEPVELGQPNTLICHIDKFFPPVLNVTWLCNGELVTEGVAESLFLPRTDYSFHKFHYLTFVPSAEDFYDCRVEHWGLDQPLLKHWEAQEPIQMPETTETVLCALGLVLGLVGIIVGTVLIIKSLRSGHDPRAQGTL
T1 sequence (P04440 30-258): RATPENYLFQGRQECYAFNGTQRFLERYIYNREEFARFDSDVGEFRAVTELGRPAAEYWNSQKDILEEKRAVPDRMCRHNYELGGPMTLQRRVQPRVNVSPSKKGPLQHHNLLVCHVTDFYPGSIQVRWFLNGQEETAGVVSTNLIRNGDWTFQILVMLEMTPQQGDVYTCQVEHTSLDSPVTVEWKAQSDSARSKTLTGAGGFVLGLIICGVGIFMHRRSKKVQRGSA
Assay: DP4 competition assay with biotinylated Hep B peptide
Conditions: inhibition of biotinylated Hep B binding to HLA-DP4, 5 fold excess test peptide, equal amount for unlabelled Hep B
Method: 2×T175 gave 2.5×10^7 B16 HHDII/DP4 (B16F1 β2M H2Ab1 dKO A35 HHDII/DP4 H7/2E9/F9 p14) cells. This was enough for 5 preps using the following protocol with Mem-PER™ Plus Membrane Protein Extraction Kit (thermo-scientific cat #89842).
5×10^6 cells were resuspended in the growth media by scraping the cells off the surface of the plate with a cell scraper and then centrifuged at 300 g for 5 mins. The cell pellet was washed with 3 ml of Cell Wash Solution and centrifuged at 300 g for 5 mins. The supernatant was removed and discarded. The cells were resuspended in 1.5 ml of Cell Wash Solution and transfer to a 2 ml centrifuge tube and centrifuged at 300 g for 5 mins. The supernatant was discarded. 0.75 ml of permeabilization buffer was added to the cell pellet and vortexed briefly to obtain a homogeneous cell suspension and incubated for 10 mins at 4° C. with constant mixing. The permeabilized cells were centrifuge for 15 mins at 16,000g before carefully removing the supernatant containing cytosolic proteins and transfering to a new tube. 0.5 ml of solubilization buffer was added to the pellet and resuspend prior to incubating at 4° C. for 30 minutes with constant mixing prior to centrifugation at 16,000g for 15 mins at 4° C. The supernatant containing solubilized membrane and membrane-associated proteins was transfered to a new tube. Aliquots were frozen at −80° C. for future use. 12.5 μl Halt™ Protease and Phosphatase Inhibitor Cocktail, EDTA-free (100X) thermo-scientific (Catalog number 78445) was added prior to freezing.
High binding plates were coated with streptavidin (Sigma S4762 at 1 mg/ml) 1/500 in PBS and incubated overnight at 4° C. The plates were blocked with 1% BSA in PBS for 4 hrs at room temp and washed 3×PBS/0.5% Tweenx. 450 μl of cell prep lysate (B16F1 B16 HHDII/DP4 H7/2E9/F9) was mixed with 50 μg test peptide (see below) or 10 μg of unlabelled Hep B peptide for 30 mins. 10 μg biotinylated Hep B peptide was added & incubated for 4 hrs at 37° C.:
Lysate/peptide mix was added to the plates at 100 μl/well and incubated for 4 hrs at room temperature. Plates were washed 3× with PBS/0.5% Tween. 100 μl per well of Leinco anti-Human HLA-DP4 clone B7/21 #H260 1 mg/ml at 1/500 dilution in 1% BSA/PBS was added and incubated for 1 hr at room temperature prior to washing 3× PBS/0.5% Tween. Goat anti-mouse lgG3-HRP at 0.5 mg/ml 1/500 100 μl per well (Invitrogen #M32607) diluted in 1% BSA/PBS) was added for 1 hr at room temperature prior to washing and adding 150 μl of TMB substrate to each well. The reaction was stopped with 50 μl of 2N H2SO4 and plates read plate at 450 nm.
To ensure that the biotinylation of Hep B had not interfered with its binding, HLA-DP4 was incubated with equal amounts of biotinylated and unlabelled Hep B peptide. Unlabelled peptide competed equally reducing binding by 47% (FIG. 53b).
The biotinylated HepB peptide was then incubated with a 5 fold excess of the unlabelled homocitrulline peptides. All peptides inhibited the binding of biotinylated Hep B to HLA-DP4 but to varying levels (FIG. 53c-e).

| Substance | % inhibition | % inhibition (listed as Cyk8 281-399 Hcit) |
| --- | --- | --- |
| HACTQ-hcit-FSH(N)EEIAMATVTA (HACTQ[hCit]FSHNEEIAMATVTA; not fully specified; printed as HACTQ-hcit-FSH(N)EEIAMATVTA) [Aldolase A 238-256 Hcit] | 73% |  |
| hcit-DGADFA-hcit-WRCVL-hcit-IGEH ([hCit]DGADFA[hCit]WRCVL[hCit]IGEH) [Aldolase A 140-157 Hcit] | 76% |  |
| LEQQN-hcit-MLET-hcit-WSLLQQQ-hcit-T (LEQQN[hCit]MLET[hCit]WSLLQQQ[hCit]T) [Cyk8 112-131 Hcit] | 64% |  |
| NYID-Hcit-VRFLEQQN-Hcit-ILLAEL (NYID[hCit]VRFLEQQN[hCit]ILLAEL) [Vimentin 116-135 Hcit] | 44% |  |
| hcit-LALDIEIATYR-hcit-LLEGEE ([hCit]LALDIEIATYR[hCit]LLEGEE) [Cyk8 381-399 Hcit] |  | 60% |
| EIN-hcit-RTEMENEFVLI-hcit-hcit-DVDE (EIN[hCit]RTEMENEFVLI[hCit][hCit]DVDE) [Cyk8 182-202 Hcit] | 61% |  |
| IGGVILFHETLYQ-hcit-ADDGRP (IGGVILFHETLYQ[hCit]ADDGRP) [Aldolase A 74-93 Hcit] | 69% |  |
| LREYQELMNV-hcit-LALDIEI (LREYQELMNV[hCit]LALDIEI) [Cyk8 371-388 Hcit] | 72% |  |
| KFASFID-Hcit-VRFLEQQN-Hcit-MLE (KFASFID[hCit]VRFLEQQN[hCit]MLE) [Cyk8 101-120 Hcit] | 71% |  |
